In paper PMC6771244, “VSTM2A suppresses colorectal cancer and antagonizes Wnt signaling receptor LRP6” (Theranostics, 2019) one finds Kd data, which are given here for two molecules.

One assay addresses DKK1 (Homo sapiens) (UniProt O94907). The experiment in a line: SPR. As to conditions: cited from earlier work.
In assay [1] the target is T1, recombinant human LRP-6 Fc Chimera Protein (R&D, 1505-LR-025) (human, UniProt O75581 20-1370).
T1 construct: human LRP6 part of a commercial Fc chimera; also called LRP6 (1505-LR-025); source: bought: R&D
T1 sequence (looked up): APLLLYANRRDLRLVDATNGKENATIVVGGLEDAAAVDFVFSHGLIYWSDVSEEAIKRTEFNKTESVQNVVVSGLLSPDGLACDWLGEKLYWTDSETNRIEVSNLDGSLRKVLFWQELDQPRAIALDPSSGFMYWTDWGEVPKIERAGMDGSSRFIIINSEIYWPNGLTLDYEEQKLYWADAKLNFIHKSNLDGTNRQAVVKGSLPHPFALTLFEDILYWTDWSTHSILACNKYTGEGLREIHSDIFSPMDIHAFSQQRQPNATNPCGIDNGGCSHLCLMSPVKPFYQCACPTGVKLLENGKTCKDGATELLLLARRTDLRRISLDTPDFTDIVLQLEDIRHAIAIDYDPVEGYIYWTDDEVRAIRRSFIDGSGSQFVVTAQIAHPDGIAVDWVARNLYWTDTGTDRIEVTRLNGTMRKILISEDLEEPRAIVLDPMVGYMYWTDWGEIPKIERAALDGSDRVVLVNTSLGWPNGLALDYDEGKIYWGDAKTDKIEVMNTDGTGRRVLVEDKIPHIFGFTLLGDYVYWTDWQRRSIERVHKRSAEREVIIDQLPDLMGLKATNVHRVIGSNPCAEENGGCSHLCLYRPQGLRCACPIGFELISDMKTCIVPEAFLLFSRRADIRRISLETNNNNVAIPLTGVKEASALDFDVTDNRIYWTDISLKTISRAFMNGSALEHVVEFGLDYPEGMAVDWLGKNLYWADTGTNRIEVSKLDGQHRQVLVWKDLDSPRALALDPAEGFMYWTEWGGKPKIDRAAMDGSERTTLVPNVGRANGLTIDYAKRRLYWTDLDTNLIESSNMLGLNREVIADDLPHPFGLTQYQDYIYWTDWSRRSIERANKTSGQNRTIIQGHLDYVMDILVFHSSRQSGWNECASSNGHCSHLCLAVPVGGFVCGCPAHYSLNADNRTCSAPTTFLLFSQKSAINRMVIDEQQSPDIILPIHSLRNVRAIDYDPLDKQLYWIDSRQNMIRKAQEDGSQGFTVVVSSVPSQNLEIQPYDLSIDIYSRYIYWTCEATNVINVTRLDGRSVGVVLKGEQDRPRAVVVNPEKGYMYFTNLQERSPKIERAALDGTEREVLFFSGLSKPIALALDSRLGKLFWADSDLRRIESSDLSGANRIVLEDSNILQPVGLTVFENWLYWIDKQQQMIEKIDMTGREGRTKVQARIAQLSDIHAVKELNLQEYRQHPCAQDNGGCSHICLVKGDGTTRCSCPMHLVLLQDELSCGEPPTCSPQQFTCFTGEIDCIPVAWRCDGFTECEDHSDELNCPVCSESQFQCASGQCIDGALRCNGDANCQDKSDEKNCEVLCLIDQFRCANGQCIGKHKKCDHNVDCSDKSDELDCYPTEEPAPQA
As to the kind of experiment: ELISA; titration ELISA; 5 ug/ml LRP-6 Fc immobilised on the plate at 4 °C for 12 h, blocked with 5% BSA in PBS; VSTM2A His-tag serial dilution (start 100 ug/ml, factor 4) for 2 h at room temperature, in duplicate; interaction fixed by DTSSP; pNPP read at OD405. The following applies: both partners purified.

Sequence of DKK1 (Homo sapiens) (O94907 32-266): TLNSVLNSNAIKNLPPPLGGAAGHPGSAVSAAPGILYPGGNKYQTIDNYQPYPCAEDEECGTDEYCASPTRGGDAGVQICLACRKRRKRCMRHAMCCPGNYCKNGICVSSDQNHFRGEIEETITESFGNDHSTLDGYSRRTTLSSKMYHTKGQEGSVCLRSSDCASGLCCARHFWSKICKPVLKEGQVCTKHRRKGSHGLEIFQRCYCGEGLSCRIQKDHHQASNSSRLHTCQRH

Take LRP6 (from UniProt O75581): the Kd with DKK1 (Homo sapiens) is 0.6 nM.

B1: Recombinant Human VSTM2A His-tag Protein (R&D, 10037-VT) (ligand, UniProt Q8TAG5 25-236, looked up)
chain: SQAKFTEFPRNVTATEGQNVEMSCAFQSGSASVYLEIQWWFLRGPEDLDPGAEGAGAQVELLPDRDPDSDGTKISTVKVQGNDISHKLQISKVRKKDEGLYECRVTDANYGELQEHKAQAYLKVNANSHARRMQAFEASPMWLQDMKPRKNVSAAIPSSIHGSANQRTHSTSSPQVVAKIPKQSPQSGARIATSHGLSVLLLVCGFVKGALL
notes: human VSTM2A, commercial recombinant protein; also called recombinant VSTM2A; VSTM2A pure protein; source: bought: R&D
In the case of B1, in assay [1], the Kd was 9.19 nM.
